Test [1] addresses thermolysin-cleaved SUDV GP (GP(S)THL) (Sudan virus (SUDV)) (UniProt Q7T9D9). Nature of the test: BLI, Fab, pH 5.3.
The target is the same in test [2]. Nature of the test: BLI, Fab, pH 7.4. On the technique in general: Biolayer interferometry detects binding as a change in optical thickness at a sensor tip.
Test [3] concerns the target full-length Sudan GP (GPFL) (Sudan virus (SUDV)) (UniProt Q7T9D9). Nature of the test: BLI, Fab, pH 5.3.
For test [4] the target is unchanged. Briefly: BLI, Fab, pH 7.4.

What is called Kd is the free concentration of one partner at which half of the binding sites on the other are occupied at equilibrium, for simple one-to-one binding. Lower therefore signals tighter binding. As a reminder, the koff is the first-order rate constant of dissociation. A higher koff goes with a short-lived complex. As a reminder, the kon is the rate constant with which the complex forms. Low readings indicate slower complex formation, high ones faster complex formation.

B1: Fab generated from 291S (Fab, V domains shown)
VH: QVQLQESGPGLVKPSQTLSLTCTVSGGSFSSGFYWSWIRQRPGKGLEWVGYTYYSGSTYYNPSLQSRVTISVDTSKNQFSLNLSSVTAADTAVYHCARADYGGLFDYWGQGILVTVSS
VL: QSVLTQPSSLSASPGASASLTCTLRSGINVGTYRIFWYQQKPGSPPQFLLRYNSDSDKQQGSGVPSRFSGSKDASANAGILLISGLQSEDEADYYCMIWHTSAWVFGGGTKLTVL
Take B1: in test [1], the dissociation constant (Kd) stood at 0.00067 µM, the off-rate constant (koff) worked out at 0.000166 s⁻¹ and the kon worked out at 248000 M⁻¹ s⁻¹. In test [2], this molecule gave a Kd of 0.00019 µM, a koff of 5.1e-05 s⁻¹ and a kon of 264000 M⁻¹ s⁻¹.

B2: Fab generated from 246S (Fab, V domains shown)
VH: QVQLVQSGAEVKKPGSSVKVSCKASGDTFSTYAITWVRQAPGQGLEWMGRIIPILGVTNYAQKFQGRVTFTADKSTITAYLELVNLRSEDTAVYYCTRDGYGGRDLLLNYYWGQGTLVTVSS
VL: EIVLTQSPGLLFWFPGERATLSCRASQSVSSSKLAWYQQKPGQAPRLLIYGASSRAPGIPDRFSGSGSGTDFTLTINRLEPEDFAVYFCQQYGSAQWTFGQGTKVDFK
In test [3], B2 came in with a Kd of 0.0342 µM, a koff of 0.000384 s⁻¹ and a kon of 11200 M⁻¹ s⁻¹. In test [4], this molecule had a Kd of 0.0232 µM, an off-rate constant (koff) of 0.000493 s⁻¹ and a kon of 21200 M⁻¹ s⁻¹.

The values above are taken from US20260209316A1.
